# Experimental data reported in US11440969B2, “Use of human epididymis protein 4 (HE4) for assessing responsiveness of MUC 16-positive cancer treatment” (Genentech, Inc., priority 2016, dated 2022).
# B1: DMUC5754A: antibody-drug conjugate: humanized IgG1 anti-MUC16 monoclonal antibody and MMAE, linked through protease labile linker maleimidocaproyl-valine-citrulline-p-aminobenzyloxycarbonyl (conjugate, chains of the INN, looked up)
# VH: EVQLVESGGGLVQPGGSLRLSCAASGYSITNDYAWNWVRQAPGKGLEWVGYISYSGYTTYNPSLKSRFTISRDTSKNTLYLQMNSLRAEDTAVYYCARWTSGLDYWGQGTLVTVSS
# VL: DIQMTQSPSSLSASVGDRVTITCKASDLIHNWLAWYQQKPGKAPKLLIYGATSLETGVPSRFSGSGSGTDFTLTISSLQPEDFATYYCQQYWTTPFTFGQGTKVEIK
# modifications: MMAE via mc-vc-PABC linker
# Assay: Safety of DMUC5754A in patients: related adverse events, DLT, MTD/RP2D (NCI CTCAE v4.0)
# Type: in vivo, human
# Conditions: for Median time to onset of first PN on study / On study PN = No, patients n (%) / On study PN = Yes, patients n (%): q3w dosing
# Description: This multicenter, open-label, dose-escalation study was designed to identify the recommended Phase II dose (RP2D) of DMUC5754A in patients with platinum-resistant OC or unresectable pancreatic cancer. In the single-agent dose escalation stage utilizing a 3+3 enrollment scheme, patients were given intravenous DMUC5754A (Genentech Inc.) 0.3-3.2 mg/kg every 3 weeks (q3w) to evaluate the safety, tolerability, and pharmacokinetics of DMUC5754A. Following determination of the maximum tolerated dose (MTD), dose-expansion cohorts were enrolled at the RP2D of 2.4 mg/kg to further characterize the safety and preliminary clinical efficacy of DMUC5754A.
# Dosing on a weekly (qlw) schedule was also evaluated at the RP2D, employing a 3+3 design to determine the MTD of weekly dosing, followed by a cohort expansion to further characterize the safety and activity of q1w dosing.
# Safety was evaluated according to NCI CTCAE v4.0. […] The maximum tolerated dose (MTD) was defined as the dose at which ≤1 of 6 patients at an assigned dose with protocol-defined DLT. Patients who experienced a DLT or adverse event (AE) meeting DLT criteria after the DLT assessment window were allowed to delay dosing for up to 2 weeks or undergo a dose reduction.
# [1] = q3w patients, over all dose levels
molecule,measurement,setting,value
B1,"Pyrexia (related AE), patients",q3w 0.3 mg/kg (n = 3),0
same,"Vomiting (related AE), patients",q3w 0.3 mg/kg (n = 3),0
same,"Alopecia (related AE), patients",q3w 0.6 mg/kg (n = 3),0
same,"Any adverse events (related), patients",q3w 0.6 mg/kg (n = 3),1
same,"Arthralgia (related AE), patients",q3w 0.6 mg/kg (n = 3),0
same,"Asthenia (related AE), patients",q3w 0.6 mg/kg (n = 3),0
same,"Decreased appetite (related AE), patients",q3w 0.6 mg/kg (n = 3),0
same,"Diarrhea (related AE), patients",q3w 0.6 mg/kg (n = 3),1
same,"Dysgeusia (related AE), patients",q3w 0.6 mg/kg (n = 3),0
same,"Fatigue (related AE), patients",q3w 0.6 mg/kg (n = 3),1
same,"Hypokalemia (related AE), patients",q3w 0.6 mg/kg (n = 3),0
same,"Hypomagnesaemia (related AE), patients",q3w 0.6 mg/kg (n = 3),0
same,"Hypophosphatemia (related AE), patients",q3w 0.6 mg/kg (n = 3),0
same,"Nausea (related AE), patients",q3w 0.6 mg/kg (n = 3),0
same,"Neutropenia (related AE), patients",q3w 0.6 mg/kg (n = 3),0
same,"Peripheral neuropathy (related AE), patients",q3w 0.6 mg/kg (n = 3),0
same,"Pyrexia (related AE), patients",q3w 0.6 mg/kg (n = 3),0
same,"Vomiting (related AE), patients",q3w 0.6 mg/kg (n = 3),1
same,"Alopecia (related AE), patients",q3w 1.2 mg/kg (n = 3),0
same,"Any adverse events (related), patients",q3w 1.2 mg/kg (n = 3),3
same,"Arthralgia (related AE), patients",q3w 1.2 mg/kg (n = 3),0
same,"Asthenia (related AE), patients",q3w 1.2 mg/kg (n = 3),0
same,"Decreased appetite (related AE), patients",q3w 1.2 mg/kg (n = 3),2
same,"Diarrhea (related AE), patients",q3w 1.2 mg/kg (n = 3),1
same,"Dysgeusia (related AE), patients",q3w 1.2 mg/kg (n = 3),0
same,"Fatigue (related AE), patients",q3w 1.2 mg/kg (n = 3),1
same,"Hypokalemia (related AE), patients",q3w 1.2 mg/kg (n = 3),0
same,"Hypomagnesaemia (related AE), patients",q3w 1.2 mg/kg (n = 3),0
same,"Hypophosphatemia (related AE), patients",q3w 1.2 mg/kg (n = 3),0
same,"Nausea (related AE), patients",q3w 1.2 mg/kg (n = 3),0
same,"Neutropenia (related AE), patients",q3w 1.2 mg/kg (n = 3),0
same,"Peripheral neuropathy (related AE), patients",q3w 1.2 mg/kg (n = 3),0
same,"Pyrexia (related AE), patients",q3w 1.2 mg/kg (n = 3),0
same,"Vomiting (related AE), patients",q3w 1.2 mg/kg (n = 3),1
same,"Alopecia (related AE), patients",q3w 1.8 mg/kg (n = 3),1
same,"Any adverse events (related), patients",q3w 1.8 mg/kg (n = 3),2
same,"Arthralgia (related AE), patients",q3w 1.8 mg/kg (n = 3),2
same,"Asthenia (related AE), patients",q3w 1.8 mg/kg (n = 3),0
same,"Decreased appetite (related AE), patients",q3w 1.8 mg/kg (n = 3),1
same,"Diarrhea (related AE), patients",q3w 1.8 mg/kg (n = 3),2
same,"Dysgeusia (related AE), patients",q3w 1.8 mg/kg (n = 3),0
same,"Fatigue (related AE), patients",q3w 1.8 mg/kg (n = 3),1
same,"Hypokalemia (related AE), patients",q3w 1.8 mg/kg (n = 3),0
same,"Hypomagnesaemia (related AE), patients",q3w 1.8 mg/kg (n = 3),2
same,"Hypophosphatemia (related AE), patients",q3w 1.8 mg/kg (n = 3),1
same,"Nausea (related AE), patients",q3w 1.8 mg/kg (n = 3),1
same,"Neutropenia (related AE), patients",q3w 1.8 mg/kg (n = 3),0
same,"Peripheral neuropathy (related AE), patients",q3w 1.8 mg/kg (n = 3),2
same,"Pyrexia (related AE), patients",q3w 1.8 mg/kg (n = 3),2
same,"Vomiting (related AE), patients",q3w 1.8 mg/kg (n = 3),0
same,"Alopecia (related AE), patients",q3w 2.4 mg/kg (n = 39),9
same,"Any adverse events (related), patients",q3w 2.4 mg/kg (n = 39),39
same,"Arthralgia (related AE), patients",q3w 2.4 mg/kg (n = 39),5
same,"Asthenia (related AE), patients",q3w 2.4 mg/kg (n = 39),5
same,"Decreased appetite (related AE), patients",q3w 2.4 mg/kg (n = 39),11
same,"Diarrhea (related AE), patients",q3w 2.4 mg/kg (n = 39),8
same,"Dysgeusia (related AE), patients",q3w 2.4 mg/kg (n = 39),7
same,"Fatigue (related AE), patients",q3w 2.4 mg/kg (n = 39),26
same,"Hypokalemia (related AE), patients",q3w 2.4 mg/kg (n = 39),4
same,"Hypomagnesaemia (related AE), patients",q3w 2.4 mg/kg (n = 39),6
same,"Hypophosphatemia (related AE), patients",q3w 2.4 mg/kg (n = 39),2
same,"Nausea (related AE), patients",q3w 2.4 mg/kg (n = 39),15
same,"Neutropenia (related AE), patients",q3w 2.4 mg/kg (n = 39),8
same,"Peripheral neuropathy (related AE), patients",q3w 2.4 mg/kg (n = 39),17
same,"Pyrexia (related AE), patients",q3w 2.4 mg/kg (n = 39),7
same,"Vomiting (related AE), patients",q3w 2.4 mg/kg (n = 39),10
same,"Alopecia (related AE), patients",q3w 3.2 mg/kg (n = 3),1
same,"Any adverse events (related), patients",q3w 3.2 mg/kg (n = 3),3
same,"Arthralgia (related AE), patients",q3w 3.2 mg/kg (n = 3),1
same,"Asthenia (related AE), patients",q3w 3.2 mg/kg (n = 3),1
same,"Decreased appetite (related AE), patients",q3w 3.2 mg/kg (n = 3),1
same,"Diarrhea (related AE), patients",q3w 3.2 mg/kg (n = 3),1
same,"Dysgeusia (related AE), patients",q3w 3.2 mg/kg (n = 3),1
same,"Fatigue (related AE), patients",q3w 3.2 mg/kg (n = 3),2
same,"Hypokalemia (related AE), patients",q3w 3.2 mg/kg (n = 3),2
same,"Hypomagnesaemia (related AE), patients",q3w 3.2 mg/kg (n = 3),0
same,"Hypophosphatemia (related AE), patients",q3w 3.2 mg/kg (n = 3),3
same,"Nausea (related AE), patients",q3w 3.2 mg/kg (n = 3),3
same,"Neutropenia (related AE), patients",q3w 3.2 mg/kg (n = 3),1
same,"Peripheral neuropathy (related AE), patients",q3w 3.2 mg/kg (n = 3),1
same,"Pyrexia (related AE), patients",q3w 3.2 mg/kg (n = 3),2
same,"Vomiting (related AE), patients",q3w 3.2 mg/kg (n = 3),3
same,"Alopecia (related AE), patients",q3w All Patients (n = 54),11
same,"Any adverse events (related), patients",q3w All Patients (n = 54),51
same,"Arthralgia (related AE), patients",q3w All Patients (n = 54),8
same,"Asthenia (related AE), patients",q3w All Patients (n = 54),6
same,"Decreased appetite (related AE), patients",q3w All Patients (n = 54),16
same,"Diarrhea (related AE), patients",q3w All Patients (n = 54),13
same,"Dysgeusia (related AE), patients",q3w All Patients (n = 54),8
same,"Fatigue (related AE), patients",q3w All Patients (n = 54),31
same,"Hypokalemia (related AE), patients",q3w All Patients (n = 54),6
same,"Hypomagnesaemia (related AE), patients",q3w All Patients (n = 54),9
same,"Hypophosphatemia (related AE), patients",q3w All Patients (n = 54),6
same,"Nausea (related AE), patients",q3w All Patients (n = 54),20
same,"Neutropenia (related AE), patients",q3w All Patients (n = 54),9
same,"Peripheral neuropathy (related AE), patients",q3w All Patients (n = 54),21
same,"Pyrexia (related AE), patients",q3w All Patients (n = 54),11
same,"Vomiting (related AE), patients",q3w All Patients (n = 54),15
same,patients with AEs leading to treatment discontinuation,"q3w cohorts, 3/54 patients",5.6%
same,Median time to onset of first PN on study,Prior neuropathy = No,71 days
same,"On study PN = No, patients n (%)",Prior neuropathy = No,11 (20%)
same,"On study PN = Yes, patients n (%)",Prior neuropathy = No,18 (33%)
same,Median time to onset of first PN on study,Prior neuropathy = Yes,148 days
same,"On study PN = No, patients n (%)",Prior neuropathy = Yes,20 (37%)
same,"On study PN = Yes, patients n (%)",Prior neuropathy = Yes,5 (9%)
same,Median time to onset of first PN on study,Total,99 days
same,"On study PN = No, patients n (%)",Total,31 (57%)
same,"On study PN = Yes, patients n (%)",Total,23 (43%)
same,"Drug-related SAE hypocalcemia, patients",q3w patients,1
same,"Drug-related SAE neutropenia, patients",q3w patients,1
same,"Drug-related SAE small intestine obstruction, patients",q3w patients,2
same,"alopecia, related AE",[1],20.4%
same,"decreased appetite, related AE",[1],29.6%
same,"diarrhea, related AE",[1],24.1%
same,"fatigue, related AE",[1],57.4%
same,"nausea, related AE",[1],37.0%
same,"peripheral sensory neuropathy, related AE",[1],27.8%
same,"pyrexia, related AE",[1],20.4%
same,"vomiting, related AE",[1],27.8%
same,Grade ≥3 related fatigue,"q3w patients, total",7.4%
same,Grade ≥3 related neutropenia,"q3w patients, total",9.3%
same,RP2D,q3w schedule,2.4 mg/kg
same,"Grade ≥3 related fatigue, patients","q3w, at 2.4 mg/kg",4
same,"Grade ≥3 related neutropenia, patients","q3w, at 2.4 mg/kg",4
